Test results taken from patent US10786550B2, “Blockade of CCL18 signaling via CCR6 as a therapeutic option in treating interstitial lung disease” (UNIVERSITÄTSKLINIKUM FREIBURG, priority 2010, dated 2020).
“Also recorded” adds a separate entry of the source.

Experiments:
[1] = system: soluble CCR6 (sCCR6); test: Blocking of free soluble CCR6 detection by ELISA; type: binding, human; settings: ligand 100 ng/ml, 1 h
Method: Sera were diluted with an equal volume of PBS/BSA (1% bovine serum albumin, Sigma, Deisenhofen, Germany) either without any additives or containing CCL18 or CCL20 (both PeproTech, Hamburg, Germany; 100 ng/ml each). The diluted sera were then incubated for 1 h at 37° C. and subsequently measured by ELISA.
The sCCR6 ELISA described in Example 8 uses a monoclonal anti-CCR6 antibody as a capture antibody bound at the plate and a biotin-conjugated polyclonal anti-CCR6 antibody as a detection antibody. Most of the monoclonal anti CCR6 antibodies are directed against the N-terminal part of the receptor bearing the ligand binding site. In order to test whether the antibody recognition site of the sCCR6 molecule in sera from fibrotic patients might be covered with the ligand because of the high abundance of CCL18 in these sera, sera from healthy volunteers were incubated with 100 ng/ml of CCL18 or CCL20, respectively and sCCR6 was measured in blocked and unblocked sera by ELISA. Addition of these CCR6 ligands leads to a marked reduction of the sCCR6 signal (FIG. 20).

[2] = biological target: T1, CCR6 (Homo sapiens, UniProt P51684); test: Inhibition of CCL18-induced CCR6 down-regulation on PBMNC/lymphocytes (FACS); type: cell-based; parameters: endogenous in cells; host or cells: freshly isolated human peripheral blood mononuclear cells; settings: for CCL18 induced down-regulation of CCR6 expression in presence of inhibitor: CCL18 10 ng/ml + inhibitor 100 ng/ml, FACS
T1 sequence (P51684 1-374): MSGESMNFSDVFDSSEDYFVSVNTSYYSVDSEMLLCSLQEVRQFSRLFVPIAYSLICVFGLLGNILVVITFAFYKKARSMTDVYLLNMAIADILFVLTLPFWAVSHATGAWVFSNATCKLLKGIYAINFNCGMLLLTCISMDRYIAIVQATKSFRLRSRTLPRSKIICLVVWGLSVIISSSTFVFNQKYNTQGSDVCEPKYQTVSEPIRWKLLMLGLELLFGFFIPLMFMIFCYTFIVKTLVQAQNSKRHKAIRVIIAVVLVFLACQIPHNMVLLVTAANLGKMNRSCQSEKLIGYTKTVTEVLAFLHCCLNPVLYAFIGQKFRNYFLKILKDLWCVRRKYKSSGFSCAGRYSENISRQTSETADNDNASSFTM
Method: Freshly isolated mononuclear cells were incubated for 20 minutes with 10 ng/ml of CCL18, 100 ng/ml of the inhibitor peptide PS-AU-105 (polypeptide according to SEQ ID NO.: 9), a combination of both or were left untreated. The incubation was performed in RPMI1640 with 10% fetal calf serum and 100 U/ml Streptomycin/Penicillin at 37° C. After the incubation, the cells were centrifugated and the supernatant was discarded. The cells were fixed with 4% paraformaldehyde for 5 minutes on ice and washed twice in PBS containing 1% FCS. After fixation the cells were stained using a fluorescein-conjugated antibody against CCR6 (R&D systems, Wiesbaden, FRG) and analyzed by flow cytometry (FACScalibur and Quantiquest; both Becton Dickinson, Franklin Lakes, USA).

[3] = system: RLE-6TN; test: EMT of rat alveolar epithelial cell line RLE-6TN; type: cell-based; settings: for differentiation into fibroblast-like cells (EMT, morphology): culture period 6 days
[4] = biological target: T1, CCR6; test: αSMA induction in RLE-6TN transiently transfected with human CCR6; type: cell-based, rat; parameters: expressed in transfected cells; host or cells: RLE-6TN (rat alveolar epithelial cell line), transient transfection
Excerpt: In contrast, all stimulations induced the expression of CD90 (FIGS. 9B and C) although CD90 expression was more intense using CCL18. […] The cells were therefore transiently transfected with a commercially available plasmid containing a DNA sequence coding for human CCR6.

[5] = system: RLE-6TN; test: EMT of rat alveolar epithelial cell line RLE-6TN; type: cell-based; settings: 6 days
Method: (§1) If not otherwise mentioned cells were stimulated with 10 ng/ml human recombinant CCL18, 2.5 ng/ml TGFβ with or without additional 1 ng/ml TNFα.
After the indicated culture period the cells were washed once in PBS and lysed in ice cold lysis buffer. Whole cell lysates were boiled at 93° C. for 5 minutes in equal volumes of loading buffer (0.5M Tris-HCl pH 6.8, 2% SDS, 0, 05% bromphenolblue, 20% 2-mercaptoethanol, 10% Glycerol).
All samples were subjected to 12% sodium dodecylsulfate-PAGE, separated by electrophoresis and transferred to a polyvinylidene difluoride membrane (PVDF). After blocking for 2 h in Tris-buffered saline (TBS) containing 5% non-fat dry milk, the membranes were incubated with primary antibody (rabbit-anti-collagen I (Rockland, Gilbertsville Pa.); anti αSMA (rabbit-anti-aSMA (Abcam, Cambridge, Mass.); anti vimentin (Santa Cruz); anti CCR6: CKR6/C20, Santa Cruz) diluted 1:700 with TBS at 4° C. overnight. Visualization was performed using appropriate secondary antibodies labeled with IRDye 800CW or IRDye 700CW (Li-COR Bioscience, Bad Homburg, Germany) diluted 1:10 000-1:20000 for 2 h and scanned using Odyssey system (Li-COR Biosience) according to the manufactures instructions.

[6] = biological target: T1, CCR6; test: CCL18-induced collagen I and αSMA mRNA expression in human lung fibroblast lines (real-time PCR); type: cell-based; parameters: endogenous in cells; settings: four human lung fibroblast cell lines
Method: as §1
After the indicated culture period total RNA was extracted using TRIzol Reagent according to the manufacturer's protocol (Invitrogen, Karlsruhe, Germany). Total RNA was reverse-transcribed with StrataScript RT (Stratagene, Santa Clara, Calif.) using oligo (dT)12-18 primer to produce cDNA according to the manufacturer's protocol. Specific primers for human CCR6, collagen type I, alpha-smooth muscle actin and GAPDH were designed using Primer3 software (Whitehead Institute for Biomedical Research, Cambridge, USA; http://frodo.wi.mit.edu/cgi-bin/primer3/primer3_www.cgi), Amplify1.2 software (University of Wisconsin, USA; http://engels.genetics.wisc.edu/amplify) using LocusLink and GenBank databases (National Center for Biotechnology Information; http://www.ncbi.nlm.nih.gov/LocusLink/index.html). Accession code numbers for the nucleotide sequences used to generate the respective primers and the primer sequences are depicted in FIG. 17.
All primers were intron-spanning and synthesized by MWG-Biotech (MWG-Biotech AG, Germany). […] A threshold cycle value (Ct) was calculated and used to compute the relative level of specific mRNA by the following formula: “relative expression=2^(Ct GAPDH-Ct CCL18)×10,000” for each cDNA sample.

[7] = system: human primary AECII; test: EMT of human primary alveolar epithelial cells type II; type: cell-based
Method: as §1
AECII were isolated as described previously (2). In brief, macroscopically tumor-free lung tissue was first sliced and slices were washed three times at 4° C. in phosphate-buffered saline (PBS) and then digested in sterile dispase solution (2.5 mg dispase II (Invitrogen GmbH, Karlsruhe, Germany) ml and 50 μg/ml DNase I (Roche Diagnostics, Mannheim, Germany)) at 37° C. for 60 minutes. After dispase digestion, the slices were thoroughly pipetted for several minutes using a 10 ml pipette with a wide inlet. Crude tissue and cell suspensions were filtered through nylon gauze with meshes of 50 and 20 μm. The cell suspension was then layered onto a density gradient solution (PAN Biotech GmbH, Aidenbach, Germany) and centrifuged at 800×g for 20 min.
The cells from interphase were washed and incubated in 100 mm Petri dishes (max. 6×10^7 cells/dish) in RPMI (Invitrogen, Karlsruhe, Germany) with 10% fetal calf serum (FCS) (PAA Laboratories GmbH, Colbe, Germany) and 1% penicillin/streptomycin (Biochrom AG, Berlin, Germany) at 37° C. in humidified incubator (5% CO2, 37° C.) for 15, 20 and if possible 30 minutes to remove adherent (mostly alveolar macrophages, monocytes and fibroblasts) from non-adherent cells. […]

[8] = system: A549; test: EMT induction by CCL18 in adenocarcinoma cell line A549; type: cell-based, human
Method: Cells of the adenocarcinoma cell line A549 were seeded in 6-well plates and allowed to adhere over night. After adherence the cells were stimulated with the indicated amount of CCL18. TGFβ was used as a positive control. […]

[9] = biological target: T1, CCR6; test: CCL18-induced FGF2 release by lung fibroblasts (FGF2 ELISA); type: cell-based; parameters: endogenous in cells; settings: CCL18 10 ng/ml, 24 h
Method: To estimate CCL18-induced FGF2 release fibroblasts were harvested, counted and seeded 300.000 cells per well in a 6-well cell culture plate in Quantum 333. Cells were allowed to attach over night and the medium was replaced with 1 ml of DMEM plus 10% FCS. Cells were either left un-stimulated or were stimulated with 10 ng/ml of human recombinant CCL18. To block CCR6/CCL18 interaction a blocking antibody against CCR6 (R&D systems, Wiesbaden, FRG) or an irrelevant antibody (mouse anti human IgG, R&D Systems) was added to a final concentration of 20 μg/ml in parallel cultures. After 24 h of culture the supernatant was harvested and stored at −80° C. until FGF2 determination.

[10] = sera with low and medium sCCR6 concentrations
[11] = serum with high sCCR6 concentration

Question: What does the source list for “CCL20: Chemokine ligand 20, CCR6 ligand (PeproTech) [reference compound]”?
Answer: sCCR6 detection by ELISA after ligand addition [1, 10]: nearly abolishes CCR6 detection; also recorded: totally blocked; reduction of sCCR6 ELISA signal [1, 11]: 14%; sCCR6 detection by ELISA after ligand addition [1, 11]: reduced by one third

Question: With “PS-AU-105: inhibitor peptide, polypeptide according to SEQ ID NO.: 9, binds to and inhibits CCR6 receptor (EDCCLVYTSWQIHPKFIVDYSETSPQCPK; peptide inhibitor of CCR6)” as the molecule, how does the “CCL18 induced down-regulation of CCR6 expression in presence of inhibitor” value ([2]; 20 minutes) read?
Answer: Its value is “diminished; also recorded: fails to down-regulate the CCR6+ sub-population”.

Question: What about the “CCL18 induced down-regulation of CCR6 expression in presence of inhibitor” value ([2]; 20 minutes, listed as PS-AU-1015) of the same molecule?
Answer: The value was “this down-regulation does not occur”.

Question: What about the “effect of inhibitor only on CCR6 expression” value ([2]; inhibitor 100 ng/ml without CCL18, 20 minutes) of the same molecule?
Answer: The value was “no effect”.

Question: What does the source list for “TGFβ: cytokine stimulus used as positive control for EMT [reference compound]”?
Answer: differentiation into fibroblast-like cells (EMT, morphology) [3]: undergoes epithelial-mesenchymal transition (EMT); also recorded: more pronounced; αSMA expression (fluorescence microscopy) ([3]; day 6): induces αSMA expression; αSMA expression in CCR6 transfected versus mock transfected cells [4]: induced αSMA expression in both cell types; also recorded: induce αSMA expression in both cell lines; vimentin expression (Western Blot) [5]: failed to induce the expression of vimentin; αSMA expression (Western Blot) [5]: strong expression of αSMA

B1: CCL18: human recombinant CCL18, chemokine ligand 18, ligand/agonist of CCR6 receptor (protein)
chain: AQVGTNKELCCLVYTSWQIPQKFIVDYSETSPQCPKPGVILLTKRGRQICADPNKKWVQKYISDLKLNA
Question: How did the “sCCR6 detection by ELISA after ligand addition” value [1, 10] turn out when B1 was run?
Answer: Its value is “nearly abolishes CCR6 detection; also recorded: totally blocked”.

Question: What about the “reduction of sCCR6 ELISA signal” value [1, 11] of the same molecule?
Answer: The value was 36%.

Question: What about the “sCCR6 detection by ELISA after ligand addition” value [1, 11] of the same molecule?
Answer: The value was “reduced by one third”.

Question: And the “differentiation into fibroblast-like cells (EMT, morphology)” value [3]?
Answer: The value was “undergoes epithelial-mesenchymal transition (EMT); also recorded: induces a differentiation into spindle-shaped, fibroblast-like cells”.

Question: And the “CD90 expression (immuno-fluorescence)” value ([3]; day 6)?
Answer: Its value is “more intense”.

Question: And the “αSMA expression (fluorescence microscopy)” value ([3]; day 6)?
Answer: Its value is “did not”.

Question: And the “αSMA expression in CCR6 transfected versus mock transfected cells” value [4]?
Answer: The value was “induced αSMA in CCR6 transfected cells, but not in mock transfected cells; also recorded: found in CCR6 transfected RLE-6TN but not in mock-transfected cells”.

Question: And the “CCR6 surface expression after incubation with CCL18” value ([2]; CCL18 10 ng/ml, 20 minutes)?
Answer: The value was “decrease in the percentage of CCR6^+ cells; also recorded: marked down-regulation; also recorded: diminishes the peak markedly”.

Question: What about the “collagen I mRNA expression induced” value [6] of the same molecule?
Answer: Its value is “three out of four; also recorded: up-regulates collagen I expression in three of four cell lines”.

Question: And the “αSMA and vimentin expression (Western blot)” value ([7]; 12 days)?
Answer: The value was “strongly up-regulates both molecules”.

Question: And the “induction of EMT” value ([7]; CCL18 with or without TNFα)?
Answer: Its value is “induces EMT”.

Question: What about the “vimentin expression (Western Blot)” value [5] of the same molecule?
Answer: Its value is “expression of vimentin”.

Question: What about the “αSMA expression (Western Blot)” value [5] of the same molecule?
Answer: Its value is “Only a faint expression of αSMA”.

Question: And the “FSP1 mRNA expression (qPCR)” value ([8]; 72 h)?
Answer: The value was “marked and dose dependent up-regulation; also recorded: up-regulation of FSP1 expression”.

Question: And the “snail expression (western blot)” value ([8]; 72 h)?
Answer: The value was “induces dose-dependently the expression; also recorded: induces snail expression”.

Question: What about the “E-cadherin expression (qPCR)” value ([8]; b569: after 24 h, b77: after 72 h) of the same molecule?
Answer: The value was “substantially down-regulated; also recorded: down-regulation of E-cadherin expression”.

Question: What about the “FGF2 release on CCL18 stimulation” value ([9]; fibroblasts from fibrotic lungs) of the same molecule?
Answer: The value was “significant up-regulation; also recorded: further up-regulated”.

Question: What about the “FGF2 release on CCL18 stimulation” value ([9]; fibroblasts from non-fibrotic lungs) of the same molecule?
Answer: Its value is “only marginal; also recorded: only marginally”.
